For one test, the system named is H596 cells. Briefly: Growth inhibition assay (Celltiter-Glo cell viability, 72 hrs, HGF stimulation). It is filed as cell-based, human. The note with it: with or without 50 ng/ml rhuHGF, FIG. 4B. As to the method: (§1) To examine the prolonged signaling in H226, H596, H358, or Rat 1A-Met stable clones, the cells were rinsed with PBS then serum-starved in RPMI or DMEM media containing 0.5% BSA, 2 mM glutamine, and penicillin/streptomycin for one hour. rhuHGF or the agonistic anti-Met monoclonal antibody, 3D6 (Genentech), was added to the serum-free media for 10 minutes. The monolayer of cells was then rinsed with PBS and incubated with serum-free media until their extraction at the indicated times. Cells were then rinsed once with PBS, lysed with 1×SDS sample buffer containing 1×DTT (Invitrogen), sonicated briefly, and boiled for 5 minutes. […] Boiled samples were analyzed by SDS-PAGE and immunoblotted with P-Met (Y1230/Y1234/Y1235, BioSource), P-Met (Y1234/Y1235), Met (DL-21), P-MAPK (E10, Cell Signaling), P-MAPK (Cell Signaling), P-Akt (587F11, Cell Signaling), or Akt (Cell Signaling). […] Proteins transferred onto nitrocellulose membranes were detected by infrared scan using Odyssey (LiCor) according to the manufacturer's recommended western blotting instructions followed by quantification. […] After 72 hrs, cell viability was measured using the Celltiter-Glo Luminescent Cell Viability Assay (Promega). Stimulation indices were determined by dividing the average cell viability units of HGF-stimulated cultures by the average cell viability units of unstimulated cultures. […]
Background: ATP-based viability assays read luminescence as a measure of living cells.

The next test has as its target Met receptor (Homo sapiens, UniProt P08581, DEL964-1010). Briefly: Met receptor inhibition in serum-starved, rhuHGF-stimulated cells, immunoblot with infrared quantification. The note with it: H596 cells (Met exon 14 deletion), antibody 30 minutes, then 100 ng/ml rhuHGF; FIGS. 4A, 6. It is filed as cell-based. The protocol: as §1
(Immunoblotting shows a protein as a band on a membrane.)

B1: OA-5D5: known anti-c-met inhibitor; antibody of intact light chain, heavy chain and N-terminally truncated heavy chain comprising an Fc portion (antibody, V domains shown)
VH: EVQLVESGGGLVQPGGSLRLSCAASGYTFTSYWLHWVRQAPGKGLEWVGMIDPSNSDTRFNPNFKDRFTISADTSKNTAYLQMNSLRAEDTAVYYCATYRSYVTPLDYWGQGTLVTVSS
VL: DIQMTQSPSSLSASVGDRVTITCKSSQSLLYTSSQKNYLAWYQQKPGKAPKLLIYWASTRESGVPSRFSGSGSGTDFTLTISSLQPEDFATYYCQQYYAYPWTFGQGTKVEIK
modifications: constant regions; truncated heavy chain Fc; Sequence is synthesized
notes: antibody of intact light chain, heavy chain and N-terminally truncated heavy chain comprising an Fc portion
On to B1, for which the “cell proliferation (cell viability)” value in the test with H596 cells is on record as “dose-dependent inhibition of cell proliferation in a ligand-dependent manner”. Moreover, in the test with Met receptor, the MAPK phosphorylation result is reported as “decreased with the addition of anti-Met OA-5D5 in a dose-dependent manner” and the Met phosphorylation entry is “decreased with the addition of anti-Met OA-5D5 in a dose-dependent manner”.

The values are drawn from US8536118B2, “Methods and compositions for modulating hyperstabilized c-met” (Genentech, Inc., priority 2005, dated 2013).
